Experimental data from patent publication US20220265769A1, “COMPOSITIONS AND METHODS OF TREATMENT FOR BREAST CANCER INVOLVING A NOVEL CAPER?-MLL1 COMPLEX” (Geisinger Health, priority 2019, published 2022).

B1: CPP-RRM3: recombinant RRM3 (441-500) conjugated with the Penetratin cell penetrating peptide, myc tag (SEQ ID NO: 32) (protein)
chain: RQIKIWFQNRRMKWKKGWDTEIKDDVIEECNKHGGVIHIYVDKNSAQGNVYVKCPSIAAAIAAVNALHGRWFAGKMTAAYVPEQKLISEEDL
modifications: RRM3-derived synthetic sequence
B2: RRM3: recombinant RRM3 (441-500)-myc peptide without Penetratin (SEQ ID NO: 33) (protein)
chain: GWDTEIKDDVIEECNKHGGVIHIYVDKNSAQGNVYVKCPSIAAAIAAVNALHGRWFAGKMTAAYVPEQKLISEEDL
modifications: RRM3-derived synthetic sequence

Tests used:
PME cells = assay: Crystal violet assay / cell counts of primary mammary epithelial cells (PMEs) treated with cell penetrating peptides; type: cell-based, human; conditions: PME cells, 5 μM peptide in media, 72 hrs
Description: (§1) Crystal violet assay/optical density method of cell quantitation: 5×10^5 cells were plated per well in 6-well tissue culture plates. At times indicated cells were washed with PBS and fixed for 10 minutes in a 10% formalin solution. Cells were then rinsed with distilled water and subsequently stained with 100 μl 0.1% crystal violet solution for 30 min. Stained cells were rinsed with water to remove the excess traces of the staining solution. Cell-associated crystal violet dye was extracted with 500 μl of 10% acetic acid. Aliquots were collected and optical density was measured at 590 nm wavelength. Each point on the curve shown represents 3 independent wells.
(§2) Cell counts for CPP treatments: Cells were plated in 6-well dishes and incubated with 5 μM concentration of peptides. At days noted, cells were trypsinized and counted using a hemocytometer.
Whether recombinant RRM3 conjugated with the Penetratin cell penetrating peptide (Dupont E, et al., Methods Mol Biol. 1324:29-37 (2015)) (FIGS. 9A, B) affects growth of T47D and PME cells was tested. Equal numbers of PME and T47D cells were seeded and incubated with 5 μM peptide in media for 72 hrs. […] Compared to CPP-coupled RRM3, CPP-RRM1 and RRM3 had no effect (FIGS. 9H-N). […]

T47D cells = assay: Crystal violet assay / cell counts of T47D cells treated with cell penetrating peptides; type: cell-based, human; conditions: 5 μM peptide in media, 72 hrs
Description: FIG. 9. […] A) Amino acid sequences of CPP-RRM1-myc, and RRM3-(441-500)-myc (SEQ ID NO: 33) and CPP-RRM3 (441-500)-myc (SEQ ID NO: 32) peptides. The sequence of Penetratin is in grey, myc tag in light grey and RRM3 in black. B) Coomassie staining showing GST-tagged, purified proteins. C, D) Representative light microscopic images of crystal violet stained cells taken after 3 days of treatment with 5 uM CPP-RRM3 (441-500)-myc. E, F) Crystal violet assay of cell numbers during treatment with 5 uM CPP-RRM3 (441-500) myc. G) Quantification of total number of cells before and after 3 days of treatment with CPP RRM3. H, I, J) Representative light microscopic images of crystal violet stained T47D cells taken after 3 days of treatment with peptides listed at top. K, L, M) Crystal violet assay of number T47D cells over 3 days of treatment with peptides listed. N) Quantification of total number of T47D cells before and after 3 days of treatment.
as §1, §2
Whether recombinant RRM3 conjugated with the Penetratin cell penetrating peptide (Dupont E, et al., Methods Mol Biol. 1324:29-37 (2015)) (FIGS. 9A, B) affects growth of T47D and PME cells was tested. Equal numbers of PME and T47D cells were seeded and incubated with 5 μM peptide in media for 72 hrs. […]

Molecule | number of PMEs (PME cells) | number of breast cancer cells (T47D cells) | number of breast cancer cells (T47D cells; listed as Cell-penetrating CAPERα RRM3)
B1 | no effect | dramatically decreased | disrupts breast cancer cell growth
B2 |  | no effect | 
